Laboratory results reported in patent US20170165338A1.

Target: HLA-A*02 (human)
Experiment: UV-exchange b2m ELISA

B1: … (peptide)
peptide: SLTEVSLPL
Question: How did the peptide exchange yield turn out when B1 was run?
Answer: 50 to 75%
